Changes are numbered by the printed parent chain. Names may count otherwise. A value given as a limit tells only on which side of the number the result lay.

First the molecules themselves.
T1: human OX40 receptor (hOX40), residues 29-170 (human, UniProt P43489 29-170, biotinylated with biotin-NHS-LC in the competition ELISA (Table II); not biotinylated in the crystals (Tables 6 and 7))
T1 construct: Monomeric soluble receptor fragment; also called hOX40Receptor; HOX40 receptor
T1 sequence: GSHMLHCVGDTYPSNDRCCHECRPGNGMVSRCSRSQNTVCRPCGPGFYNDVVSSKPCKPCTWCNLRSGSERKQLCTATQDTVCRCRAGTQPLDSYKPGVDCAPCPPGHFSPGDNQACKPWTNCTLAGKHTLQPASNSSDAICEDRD

T2: human OX40 receptor (hOX40), residues 29-170 (human, UniProt P43489 29-170, in the competition ELISA only: biotinylated with a 4 fold molar excess of biotin-NHS-LC (sites not given))
T2 construct: Secreted from High Five insect cells (baculovirus), His-tag cleaved; also called hOX40 receptor; monomeric hOX40
T2 sequence: T1 sequence

B1: human OX40L F180A in the N90D, N114D background, residues 51-183 (ligand)
chain: GSHMQVSHRYPRIQSIKVQFTEYKKEKGFILTSQKEDEIMKVQDNSVIINCDGFYLISLKGYFSQEVDISLHYQKDEEPLFQLKKVRSVNSLMVASLTYKDKVYLNVTTDNTSLDDFHVNGGELILIHQNPGEACVL
notes: Properly assembled trimer by size exclusion chromatography
B2: human OX40L N166A in the N90D, N114D background, residues 51-183 (ligand)
chain: B1 chain with N120A, A134F
notes: as for B1
B3: human OX40L residues 51-183 N90D, N114D, D162A (ligand)
chain: B1 chain with D116A, A134F
notes: Single alanine mutant in the N90D, N114D background
B4: human OX40L residues 51-183 N90D, N114D, Q80A (ligand)
chain: B1 chain with Q34A, A134F
notes: as for B3
B5: human OX40L (hOX40L), wild type, residues 51-183 (ligand)
chain: B1 chain with D44N, D68N, A134F
notes: Homotrimer; also called WT; OX40 ligand
B6: human OX40L T144A in the N90D, N114D background, residues 51-183 (ligand)
chain: B1 chain with T98A, A134F
notes: as for B1
B7: human OX40L E123A in the N90D, N114D background, residues 51-183 (ligand)
chain: B1 chain with E77A, A134F
notes: as for B1
B8: human OX40L Q80A in the N90D, N114D background, residues 51-183 (ligand)
chain: B1 chain with Q34A, A134F
notes: as for B1
B9: human OX40L D162A in the N90D, N114D background, residues 51-183 (ligand)
chain: B1 chain with D116A, A134F
notes: as for B1
B10: human OX40L residues 51-183 N90D, N114D, N166A (ligand)
chain: B1 chain with N120A, A134F
notes: as for B3
B11: human OX40L residues 51-183 N90D, N114D, F180A (ligand)
chain: B1 chain
notes: as for B3
B12: human OX40L (hOX40L) N90D, N114D double glycosylation mutant, residues 51-183 (ligand)
chain: B1 chain with A134F
notes: Homotrimer; also called hOX40Ligand; hOX40L double glycosylation mutant

The target in one assay is T1, human OX40 receptor (hOX40), residues …. Nature of the assay: competition ELISA; mutant in solution with biotinylated hOX40, unbound receptor captured on mOX40L-coated plate (N.D.: no detectable competition). For orientation: ELISA stands for enzyme-linked immunosorbent assay.
Consider B1, for which the binding result is given as “no binding”.

With B2, the binding result is on record as “no binding”.

The target of the next assay is T2, human OX40 receptor (hOX40), residues …. Nature of the assay: competition ELISA, alanine mutant against the N90D, N114D reference.
Regarding B3, the “fold change in IC50” value was at least 3 fold.

For the molecule B4, the “fold change in IC50” value is at least 3 fold.

Another assay has as its target T1, human OX40 receptor (hOX40), residues …. Nature of the assay: competition ELISA; relative to hOX40L N90D, N114D.
Consider B5, for which the “Fold-change in IC50 (Mutant/N90D, N114D)” value worked out at 2.2 fold.

Consider B6, for which the “Fold-change in IC50 (Mutant/N90D, N114D)” value stood at 2.2 fold.

As for B7, the “Fold-change in IC50 (Mutant/N90D, N114D)” value was found to be 3 fold.

Regarding B8, the “Fold-change in IC50 (Mutant/N90D, N114D)” value was found to be 8.6 fold.

For B9, the “Fold-change in IC50 (Mutant/N90D, N114D)” value was 6.9 fold.

In another assay the target is T2, human OX40 receptor (hOX40), residues …. Nature of the assay: competition ELISA (biotinylated hOX40 pre-incubated with mutant, unbound receptor captured on mOX40L-coated plate).
For the molecule B10, the binding result was “no binding”.

For B11, the binding result is reported as “no binding”.

The target of a further assay is T1, human OX40 receptor (hOX40), residues …. Nature of the assay: competition ELISA; hOX40L in solution with biotinylated hOX40, unbound receptor captured on plate-coated mOX40L (competitor).
For B5, the IC50 (as a rule, the concentration that gives 50% inhibition) came out at 139 nM.

As to B6, the half-inhibitory concentration (IC50) is 139 nM.

In turn, B7 showed a concentration for half-maximal inhibition (IC50) of 186 nM.

Take B8: the IC50 is 537 nM.

B12: the half-maximal inhibitory concentration (IC50) was 62 nM.

In the case of B9, the IC50 was determined as 425 nM.
